Experimental data published in patent US20230330257A1 (BEIJING TIANNUOJIANCHENG PHARMA TECH, published 2023).

T1: recombinant human CD3εγ-Fc heterodimer (human)
T1 construct: Extracellular regions of CD3γ and CD3ε as Fc hole/knob heterodimer; also called human CD3εγ protein; recombinant human CD3γ/ε antigen
T1 chain 1: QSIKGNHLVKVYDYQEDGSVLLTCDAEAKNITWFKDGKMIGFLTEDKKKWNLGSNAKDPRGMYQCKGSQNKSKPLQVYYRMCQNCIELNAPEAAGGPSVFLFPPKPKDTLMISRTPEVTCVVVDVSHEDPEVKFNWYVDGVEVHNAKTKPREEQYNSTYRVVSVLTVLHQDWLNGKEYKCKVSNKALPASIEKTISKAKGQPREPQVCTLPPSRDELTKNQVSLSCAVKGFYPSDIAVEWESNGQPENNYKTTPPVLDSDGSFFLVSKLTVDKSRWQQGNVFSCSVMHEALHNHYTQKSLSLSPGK
T1 chain 2: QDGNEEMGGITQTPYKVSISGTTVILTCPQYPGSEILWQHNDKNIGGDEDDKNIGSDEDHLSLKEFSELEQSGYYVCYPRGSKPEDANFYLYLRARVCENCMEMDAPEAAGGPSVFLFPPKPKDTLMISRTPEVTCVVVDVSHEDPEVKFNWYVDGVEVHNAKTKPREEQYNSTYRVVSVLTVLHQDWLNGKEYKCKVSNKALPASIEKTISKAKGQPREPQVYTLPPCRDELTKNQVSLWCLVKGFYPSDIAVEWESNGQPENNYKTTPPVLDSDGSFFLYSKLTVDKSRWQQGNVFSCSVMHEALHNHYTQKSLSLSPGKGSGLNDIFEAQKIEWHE

T2: human CD20 (human, UniProt P11836 1-297)
T2 construct: whole, on cells; also called CD20 receptor; CHO-human CD20 (clone 3G6)
T2 sequence (looked up): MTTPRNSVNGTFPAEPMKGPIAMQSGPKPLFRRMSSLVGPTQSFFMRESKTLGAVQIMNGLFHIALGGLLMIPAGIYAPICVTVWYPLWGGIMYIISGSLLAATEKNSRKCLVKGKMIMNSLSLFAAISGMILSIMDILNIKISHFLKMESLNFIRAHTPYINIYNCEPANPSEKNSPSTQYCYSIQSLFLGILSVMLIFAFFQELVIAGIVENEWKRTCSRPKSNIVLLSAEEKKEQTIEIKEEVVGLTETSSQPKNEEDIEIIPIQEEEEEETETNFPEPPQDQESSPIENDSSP


Columns and labels:
[1] = biological target: T1, recombinant human CD3εγ-Fc heterodimer; assay: ELISA, human CD3εγ protein coated on the plate, HRP goat anti-human IgG Fc, A450
Protocol: Human CD3εγ protein was coated onto a plate and placed at 4° C. overnight.

human CD20 [2] = biological target: T2, human CD20; assay: flow cytometry on Raji cells, Alexa Fluor 647 goat anti-human IgG Fc
Protocol: (§1) A lymphoma cell line Raji and Daudi cells in the logarithmic growth phase were taken, 200 μg/mL mouse IgG (Jackson ImmunoResearch) was added, and the mixture was blocked for 30 min. 5×10⁴ cells and 50 μL, of gradient-diluted antibody (the initial concentration of 200 nM, 5-fold dilution, a total of 8 gradients) were added to each well of a 96-well U-shaped plate, and incubated on ice for 45 min. After the cells were washed, 50 μL, of Alexa Fluro647-labelled goat anti-human IgG Fc (1: 300 dilution) was added to each well, and the mixture was incubated on ice for 45 min. 60 μL, of PI (Sigma, P4170) was added to each well, and the mixture was incubated for 5 min and detected by using a flow cytometer (iQue Screener).

human CD20 [3] = biological target: T2, human CD20; assay: flow cytometry on Daudi cells, Alexa Fluor 647 goat anti-human IgG Fc
Protocol: as §1

Row | Binder | EC50 (read off the curve) [1] | EC50 (read off the curve) (human CD20 [3]) | further results
1 | aCD3-hVH9/VL2 (antibody, human IgG4, V domains shown, Expressed with an antibody lambda light chain constant region and human IgG4 heavy chain constant regions CH1-CH3; also called humanized anti-CD3 antibody hVH9/VL2) VH: EVQLVESGGGLVQPGGSLRLSCAASGFTFNTYAMNWVRKAPGKGLEWVGRIRSKYNNYATYYADSVKDRFTISRDDSKNSLYLQMNSLKTEDTAVYYCVRHGNFGNSYVSWFAYWGQGTLVTVSS VL: QAVVTQEPSLTVSPGGTVTLTCRSSTGAVTTSNYANWVQEKPGQAPRGLIGGTNKRAPWTPARFSGSLLGGKAALTLSGAQPEDEAEYYCALWYSNLWVFGGGTKLTVL | ~600 pM |  | 
2 | aCD3-hVH8/VL1 (antibody, human IgG4, V domains shown, Expressed with an antibody lambda light chain constant region and human IgG4 heavy chain constant regions CH1-CH3; also called humanized anti-CD3 antibody hVH8/VL1) VH: EVQLVESGGGLVQPGGSLRLSCAASGFTFNTYAMNWVRKAPGKGLEWVGRIRSKYNNYATYYADSVKDRFTISRDDSKNSLYLQMNSLKTEDTAVYYCARHGNFGNSYVSWFAYWGQGTLVTVSS VL: QAVVTQEPSLTVSPGGTVTLTCRSSTGAVTTSNYANWVQQKPGQAPRGLIGGTNKRAPWTPARFSGSLLGGKAALTLSGAQPEDEAEYYCALWYSNLWVFGGGTKLTVL | ~600 pM |  | 
3 | aCD3-hVH9/VL5 (antibody, human IgG4, V domains shown, Expressed with an antibody lambda light chain constant region and human IgG4 heavy chain constant regions CH1-CH3; also called humanized anti-CD3 antibody hVH9/VL5) VH: EVQLVESGGGLVQPGGSLRLSCAASGFTFNTYAMNWVRKAPGKGLEWVGRIRSKYNNYATYYADSVKDRFTISRDDSKNSLYLQMNSLKTEDTAVYYCVRHGNFGNSYVSWFAYWGQGTLVTVSS VL: QAVVTQEPSLTVSPGGTVTLTCRSSTGAVTTSNYANWVQEKPGQAPRGLIGGTNKRAPWTPARFSGSLLGGKAALTITGAQAEDEAEYYCVLWYSNLWVFGGGTKLTVL | ~500 pM |  | 
4 | aCD3-hVH9/VL1 (antibody, human IgG4, V domains shown, Expressed with an antibody lambda light chain constant region and human IgG4 heavy chain constant regions CH1-CH3; also called humanized anti-CD3 antibody hVH9/VL1) VH: EVQLVESGGGLVQPGGSLRLSCAASGFTFNTYAMNWVRKAPGKGLEWVGRIRSKYNNYATYYADSVKDRFTISRDDSKNSLYLQMNSLKTEDTAVYYCVRHGNFGNSYVSWFAYWGQGTLVTVSS VL: QAVVTQEPSLTVSPGGTVTLTCRSSTGAVTTSNYANWVQQKPGQAPRGLIGGTNKRAPWTPARFSGSLLGGKAALTLSGAQPEDEAEYYCALWYSNLWVFGGGTKLTVL | ~600 pM |  | 
5 | aCD3-hVH8/VL5 (antibody, human IgG4, V domains shown, Expressed with an antibody lambda light chain constant region and human IgG4 heavy chain constant regions CH1-CH3; also called aCD3-hVH8/VLS (so in the source)) VH: EVQLVESGGGLVQPGGSLRLSCAASGFTFNTYAMNWVRKAPGKGLEWVGRIRSKYNNYATYYADSVKDRFTISRDDSKNSLYLQMNSLKTEDTAVYYCARHGNFGNSYVSWFAYWGQGTLVTVSS VL: QAVVTQEPSLTVSPGGTVTLTCRSSTGAVTTSNYANWVQEKPGQAPRGLIGGTNKRAPWTPARFSGSLLGGKAALTITGAQAEDEAEYYCVLWYSNLWVFGGGTKLTVL | ~600 pM |  | 
6 | aCD3-hVH1/VL5 (antibody, human IgG4, V domains shown, Expressed with an antibody lambda light chain constant region and human IgG4 heavy chain constant regions CH1-CH3; also called humanized anti-CD3 antibody hVH1/VL5) VH: EVQLVESGGGLVQPGGSLRLSCAASGFTFNTYAMNWVRQAPGKGLEWVSRIRSKYNNYATYYADSVKDRFTISRDDSKNTLYLQMNSLKTEDTAVYYCVRHGNFGNSYVSWFAYWGQGTLVTVSS VL: QAVVTQEPSLTVSPGGTVTLTCRSSTGAVTTSNYANWVQEKPGQAPRGLIGGTNKRAPWTPARFSGSLLGGKAALTITGAQAEDEAEYYCVLWYSNLWVFGGGTKLTVL | ~600 pM |  | 
7 | aCD3-hVH9/VL3 (antibody, human IgG4, V domains shown, Expressed with an antibody lambda light chain constant region and human IgG4 heavy chain constant regions CH1-CH3; also called humanized anti-CD3 antibody hVH9/VL3) VH: EVQLVESGGGLVQPGGSLRLSCAASGFTFNTYAMNWVRKAPGKGLEWVGRIRSKYNNYATYYADSVKDRFTISRDDSKNSLYLQMNSLKTEDTAVYYCVRHGNFGNSYVSWFAYWGQGTLVTVSS VL: EAVVTQEPSLTVSPGGTVTLTCESSDGAVTTSNYANWVQEKPGQAPRGLIGGTNKEAPWTPARFSGSLLGGKAALTLSGAQPEDEAEYYCALWYSNLWVFGGGTKLTVL | ~600 pM |  | 
8 | Mab001 (antibody, V domains shown, also called humanized Mab001 antibody; humanized anti-CD20 antibody) VH: QVQLVQSGAEVKKPGSSVKVSCKASGYTFTSYNMHWVRQAPGQGLEWMGAIYPGNGDTSYNQKFQGRVTLTADKSSSTAYMELSSLRSEDTAVYYCARSTYYGGDWYFNVWGQGTLVTVSS VL: EIVLTQSPGTLSLSPGERATLSCRASSSVSYIHWFQQKPGQAPRPLIYATSNLASGIPDRFSGSGSGTDYTLTISRLEPEDFAVYYCQQWTSNPPTFGQGTKLEIK |  |  | binding result (human CD20 [2]): binds
9 | Mab002 (antibody, V domains shown, also called humanized Mab002 antibody; humanized anti-CD20 antibody) VH: QVQLVQSGAEVKKPGSSVKVSCKASGYTFTSYNMHWVRQAPGQGLEWMGAIYPGNGDTSYNQKFQGRVTLTADKSSSTAYMELSSLRSEDTAVYYCARSTYYGGDWYFDYWGQGTLVTVSS VL: EIVLTQSPGTLSLSPGERATLSCRASSSVSYIHWFQQKPGQAPRPLIYATSNLASGIPDRFSGSGSGTDYTLTISRLEPEDFAVYYCQQWTSNPPTFGQGTKLEIK |  |  | binding result (human CD20 [2]): binds
10 | Mab005 (antibody, V domains shown, also called humanized Mab005 antibody; humanized anti-CD20 antibody) VH: EVQLLESGGGLVQPGGSLRLSCAASGFTFNDYAMHWVRQAPGKGLEWVSTISWNSGSIGYADSVKGRFTISRDNSKNTLYLQMNSLRAEDTAVYYCAKDIQYGNYYYGMDVWGQGTLVTVSS VL: EIVLTQSPGTLSLSPGERATLSCRASQSVSSYLAWYQQKPGQAPRLLIYDASNRATGIPDRFSGSGSGTDFTLTISRLEPEDFAVYYCQQRSNWPITFGQGTKLEIK |  | ~10000 pM | 
11 | Mab006 (antibody, V domains shown, also called humanized Mab006 antibody; humanized anti-CD20 antibody) VH: EVQLLESGGGVVQPGGSLRLSCAASGFTFNDYAMHWVRQAPGKGLEWVSTISWNSGSIGYADSVKGRFTISRDNSKNTLYLQMNSLRAEDTAVYYCAKDIQYGNYYYGMDVWGQGTLVTVSS VL: EIVLTQSPGTLSLSPGERATLSCRASQSVSSYLAWYQQKPGQAPRLLIYDASNRATGIPDRFSGSGSGTDFTLTISRLEPEDFAVYYCQQRSNWPITFGQGTKLEIK |  | ~10000 pM | 
12 | Mab007 (antibody, V domains shown, also called humanized Mab007 antibody; humanized anti-CD20 antibody) VH: EVQLLESGGGVVQPGGSLRLSCAASGFTFNDYAMHWVRQAPGKGLEWVSTISWNSGSIGYADSVKGRFTISRDNSKNTLYLQMNSLRAEDTAVYYCAKDIQYGNYYYGMDYWGQGTLVTVSS VL: EIVLTQSPGTLSLSPGERATLSCRASQSVSSYLAWYQQKPGQAPRLLIYDASNRATGIPDRFSGSGSGTDFTLTISRLEPEDFAVYYCQQRSNWPITFGQGTKLEIK |  | ~10000 pM | 
13 | Mab004 (antibody, V domains shown, also called humanized Mab004 antibody; humanized anti-CD20 antibody) VH: EVQLLESGGGLVQPGGSLRLSCAASGFTFNDYAMHWVRQAPGKGLEWVSTISWNSGSIGYADSVKGRFTISRDNAKKTLYLQMNSLRAEDTAVYYCAKDIQYGNYYYGMDVWGQGTLVTVSS VL: EIVLTQSPGTLSLSPGERATLSCRASQSVSSYLAWYQQKPGQAPRLLIYDASNRATGIPDRFSGSGSGTDFTLTISRLEPEDFAVYYCQQRSNWPITFGQGTKLEIK |  | ~10000 pM | 
